Data from the supplement of paper PMC9170038.

Tested on: MS2 coat protein
Assay: apparent KD of MS2 coat protein; designed switch direction (-1 OFF switch, 1 ON switch): -1; higher = weaker reporter binding
Summary of the method: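 Stalled E. coli RNA polymerase transcribed designed RNA switches on Illumina chips, which were then titrated with SNAP-549-labelled MS2 coat protein, doubling from 0.7 or 1.5 nM to 3 µM. Steps lasted from 0.8–1.5 h at the lowest concentration to 10–20 min at the highest. The apparent KD is each design's median over clusters of curve-fitted normalised fluorescence.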

[1] = input ligand: microRNA oligo, concentration not stated

| Sequence | apparent KD of MS2 coat protein (input ligand: FMN 200 uM) | apparent KD of MS2 coat protein (input ligand: none) | apparent KD of MS2 coat protein [1] |
| --- | --- | --- | --- |
| ACACAGCGAGGAUAUACAUGAGGAUCACCCAUGUGGCGGCCGUUACGGUAGGACUAGUGUAGAAGGCGCAUUGG [EX3 #34] (Eterna round: R97, puzzle: Exclusion 3) | 203 nM | 247 nM | – |
| ACACAGCGAGGAUAUACAUGAGGAUCACCCAUGUGGUGGCAGUUACGGUAGGACUAGUGUAGAAGGUGCCGUGG [EX3 #28] (Eterna round: R97, puzzle: Exclusion 3) | 600 nM | 588 nM | – |
| ACACUGCUAGGAUAUGCAGCGGCAUCAGCCGAAAGUCCCUCACAUGAGGAUCACCCAUGUAGAAGGAGCAAGAC [Eternabot (Original) Solution 13] (Eterna round: R97, puzzle: Exclusion 2) | 26.9 nM | 26.6 nM | – |
| ACAUAUGUUAGAGGAUCCUACAUGAGGAUCACCCAUGUCGGUAUAAAACUCACACGGUCAACGCUUUUUGUUCGCUA [Eternabot (L1) Solution 2] (Eterna round: R97, puzzle: Sensor, turn-off variant 1) | 30.5 nM | 34.7 nM | – |
| ACAUGACAUGAGGAUCACCCAUGUUAGGAUAUCCCUCGUCCUGACUGAACGUCGGAAUGGAGAAGGAGCAUGGC [Eternabot (L2) Solution 88] (Eterna round: R97, puzzle: Exclusion 1) | 47.1 nM | 45.8 nM | – |
| ACAUGAGGAUCACCCAUGUAAACAUAAUGGCUCAUGUAGAGUCAGGAUAUGCGUGGCGAACAAGCGCAGAAGGGACAAGACUGG [Deportation 25 - Jieux - Exclusion NG 3] (Eterna round: R96, puzzle: Exclusion NG 3) | 30 nM | 27.2 nM | 19.6 nM |
| ACAUGAGGAUCACCCAUGUAAACAUAAUGGCUCAUGUAGAGUCAGGAUAUGCGUGGCGAACAAUCGCAGAAGGGACAAGACUGG [Deportation 28 - Jieux - Exclusion NG 3] (Eterna round: R96, puzzle: Exclusion NG 3) | 29.2 nM | 27.8 nM | 19.9 nM |
| ACAUGAGGAUCACCCAUGUAAACAUGAUGGCUGAUGUAGAGCUAGGAUAUGAGUGACUAUCUAUCUCAGAAGGAGCUUGACUGG [Deportation 45 - Jieux - Exclusion NG 3] (Eterna round: R96, puzzle: Exclusion NG 3) | 26 nM | 31.4 nM | 27.1 nM |
| ACAUGAGGAUCACCCAUGUAAUCAUAAUGGCUGAUGUAGAGUCAGGAUAUGUGUGGCUAACAAUCGCAGAAGGGACAAGACUGG [Deportation 32 - Jieux - Exclusion NG 3] (Eterna round: R96, puzzle: Exclusion NG 3) | 31.4 nM | 29.5 nM | 21.6 nM |
| ACAUGAGGAUCACCCAUGUAAUCAUGAUGGCUGAUGUAGAGCUAGGAUAUGAGUGGCUUUCUAUCUCAGAAGGAGCUUGACUGG [Deportation 42 - Jieux - Exclusion NG 3] (Eterna round: R96, puzzle: Exclusion NG 3) | 28.9 nM | 37.2 nM | 25.5 nM |
| ACAUGAGGAUCACCCAUGUAAUGAAGGGUACUAUACUAAACGUAGGAUAUCGAUGUAAGAUUGAACGAGAAGGACGAUUGCCUU [JR_ExcNG3_Sub050] (Eterna round: R96, puzzle: Exclusion NG 3) | 55.9 nM | 72.8 nM | 42 nM |
